# Assay results published in paper PMC7337902.
# Target: HRP2 (hepatoma-derived growth factor-related protein 2) IBD (UniProt Q7Z4V5)
# Experiment: biotin-peptide streptavidin pull-down, GST blot
# Conditions: reference: unphosphorylated IBM peptide; sites S323
# UniProt Q7Z4V5, sequence (Q7Z4V5 whole entry, looked up): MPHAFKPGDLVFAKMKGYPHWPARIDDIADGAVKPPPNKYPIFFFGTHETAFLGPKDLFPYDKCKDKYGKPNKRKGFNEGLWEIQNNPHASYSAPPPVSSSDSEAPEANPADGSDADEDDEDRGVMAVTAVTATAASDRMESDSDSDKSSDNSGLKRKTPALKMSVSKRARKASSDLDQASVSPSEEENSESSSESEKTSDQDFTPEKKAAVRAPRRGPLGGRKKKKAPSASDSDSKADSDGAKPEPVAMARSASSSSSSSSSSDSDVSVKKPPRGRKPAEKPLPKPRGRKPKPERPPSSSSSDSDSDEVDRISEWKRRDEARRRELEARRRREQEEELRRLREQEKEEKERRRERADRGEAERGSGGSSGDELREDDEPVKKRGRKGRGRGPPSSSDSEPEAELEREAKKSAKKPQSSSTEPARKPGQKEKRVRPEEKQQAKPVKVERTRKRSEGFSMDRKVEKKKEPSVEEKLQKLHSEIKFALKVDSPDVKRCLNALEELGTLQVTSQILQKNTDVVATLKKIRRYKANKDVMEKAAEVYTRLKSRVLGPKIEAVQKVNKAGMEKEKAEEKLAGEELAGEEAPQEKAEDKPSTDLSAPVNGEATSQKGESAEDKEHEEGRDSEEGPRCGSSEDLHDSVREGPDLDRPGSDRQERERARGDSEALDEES
substance,measurement,value
DPF3a (BAF45c) IBM peptide (from UniProt Q92784-2) pS323 IBM peptide,binding against the reference,stronger
